Experimental data taken from patent US20140221283A1 (INDIANA UNIVERSITY RESEARCH AND TECHNOLOGY, published 2014).
*1 amine or outer side, *2 acyl side, *3 side chain or, on linkers, in order; H or OH if unused. Where no end group is shown, it is not given here. Side-chain parts run from the residue outwards. [ ]: non-standard residue; d: D form. The star is where a group is joined. γGlu = O=C(O)[C@H](CCC(=O)[*:2])N[*:1]; Palmitoyl = CCCCCCCCCCCCCCCC(=O)*; Met(O) = CS(=O)CC[C@H](N)C(=O)O; Aib = CC(C)(N)C(=O)O

T1: GIP receptor (assay by the procedure of Example 3)
T1 sequence (P48546 whole entry, species assumed, looked up): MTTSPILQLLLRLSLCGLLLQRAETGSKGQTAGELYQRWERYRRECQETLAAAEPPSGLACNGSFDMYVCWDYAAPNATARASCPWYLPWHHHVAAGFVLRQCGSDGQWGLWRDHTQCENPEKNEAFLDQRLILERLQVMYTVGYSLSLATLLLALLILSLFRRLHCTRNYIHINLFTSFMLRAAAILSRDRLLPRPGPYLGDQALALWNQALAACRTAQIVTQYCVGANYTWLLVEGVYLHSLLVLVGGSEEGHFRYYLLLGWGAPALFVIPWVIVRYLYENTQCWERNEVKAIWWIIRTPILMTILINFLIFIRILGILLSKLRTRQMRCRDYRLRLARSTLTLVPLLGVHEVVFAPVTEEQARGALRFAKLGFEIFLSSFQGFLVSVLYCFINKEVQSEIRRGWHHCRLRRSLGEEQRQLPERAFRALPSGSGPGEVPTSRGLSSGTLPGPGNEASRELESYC


Target: T1, GIP receptor (assay by the procedure of …)
Assay: cell-based or functional assay

Binder	EC50 (nM) at GIP receptor (procedure of Example 3)
H[Aib]QGTFTSDK([γGlu-γGlu-Palmitoyl])SKYLD[Aib]RAAQDFVQWL[Met(O)]DTKQ-OH (not fully specified; printed as HaibQGTFTSDK(γGlu-γGlu-C16)SKYLDaibRAAQDFVQWLMornDTKQ-acid) [peptide of SEQ ID NO: 15]	1.9 nM
HSQGTFTSDKSKYLDERAAQDFVQWLLDTKX (lower-case 's' at position 2 (taken as D-Ser; the table does not explain it); Lys at position 10 acylated as K(γGlu-C16); C-terminal γGlu; C-terminal amide) [peptide of SEQ ID NO: 14]	976 nM
H[Aib]QGTFTSDYSKYLDERRA[Aib]EFVC(40K‑TE PEG)WLLDTK[γGlu]-NH2 [peptide of SEQ ID NO: 13]	140 nM
H[Aib]QGTFTSDK([γGlu-γGlu-Palmitoyl])SKYLD[Aib]RAAQDFVQWLLDTKQ-OH (N-terminus assumed; SMILES CCCCCCCCCCCCCCCC(=O)N[C@@H](CCC(=O)N[C@@H](CCC(=O)NCCCC[C@H](NC(=O)[C@H](CC(=O)O)NC(=O)[C@H](CO)NC(=O)[C@@H](NC(=O)[C@H](Cc1ccccc1)NC(=O)[C@@H](NC(=O)CNC(=O)[C@H](CCC(N)=O)NC(=O)C(C)(C)NC(=O)[C@@H](N)Cc1c[nH]cn1)[C@@H](C)O)[C@@H](C)O)C(=O)N[C@@H](CO)C(=O)N[C@@H](CCCCN)C(=O)N[C@@H](Cc1ccc(O)cc1)C(=O)N[C@@H](CC(C)C)C(=O)N[C@@H](CC(=O)O)C(=O)NC(C)(C)C(=O)N[C@@H](CCCNC(=N)N)C(=O)N[C@@H](C)C(=O)N[C@@H](C)C(=O)N[C@@H](CCC(N)=O)C(=O)N[C@@H](CC(=O)O)C(=O)N[C@@H](Cc1ccccc1)C(=O)N[C@H](C(=O)N[C@@H](CCC(N)=O)C(=O)N[C@@H](Cc1c[nH]c2ccccc12)C(=O)N[C@@H](CC(C)C)C(=O)N[C@@H](CC(C)C)C(=O)N[C@@H](CC(=O)O)C(=O)N[C@H](C(=O)N[C@@H](CCCCN)C(=O)N[C@@H](CCC(N)=O)C(=O)O)[C@@H](C)O)C(C)C)C(=O)O)C(=O)O) [peptide of SEQ ID NO: 16]	1.04 nM
H[Aib]QGTFTSDK([γGlu-γGlu-Palmitoyl])SKYLD[Aib]RAAQDFVQWLMDTK[γGlu]-NH2 [peptide of SEQ ID NO: 12]	12.8 nM
